The text below walks through data of publication PMC3470408.

The test system of the series is CC(C)=CCOP(=O)(O)OP(=O)(O)O. Put plainly: purified protein. The settings on record: pH 7.0; 37.0 °C.

For “Rv0562 (Mycobacterium tuberculosis H37Rv)”, the Km came out at 5 ± 2 µM.

The Km is the concentration of substrate that gives half-maximal velocity.
